Assay [1] deals with T1, human IL-4Rα on TF-1 cells (human, UniProt P24394 26-825).
T1 sequence (looked up): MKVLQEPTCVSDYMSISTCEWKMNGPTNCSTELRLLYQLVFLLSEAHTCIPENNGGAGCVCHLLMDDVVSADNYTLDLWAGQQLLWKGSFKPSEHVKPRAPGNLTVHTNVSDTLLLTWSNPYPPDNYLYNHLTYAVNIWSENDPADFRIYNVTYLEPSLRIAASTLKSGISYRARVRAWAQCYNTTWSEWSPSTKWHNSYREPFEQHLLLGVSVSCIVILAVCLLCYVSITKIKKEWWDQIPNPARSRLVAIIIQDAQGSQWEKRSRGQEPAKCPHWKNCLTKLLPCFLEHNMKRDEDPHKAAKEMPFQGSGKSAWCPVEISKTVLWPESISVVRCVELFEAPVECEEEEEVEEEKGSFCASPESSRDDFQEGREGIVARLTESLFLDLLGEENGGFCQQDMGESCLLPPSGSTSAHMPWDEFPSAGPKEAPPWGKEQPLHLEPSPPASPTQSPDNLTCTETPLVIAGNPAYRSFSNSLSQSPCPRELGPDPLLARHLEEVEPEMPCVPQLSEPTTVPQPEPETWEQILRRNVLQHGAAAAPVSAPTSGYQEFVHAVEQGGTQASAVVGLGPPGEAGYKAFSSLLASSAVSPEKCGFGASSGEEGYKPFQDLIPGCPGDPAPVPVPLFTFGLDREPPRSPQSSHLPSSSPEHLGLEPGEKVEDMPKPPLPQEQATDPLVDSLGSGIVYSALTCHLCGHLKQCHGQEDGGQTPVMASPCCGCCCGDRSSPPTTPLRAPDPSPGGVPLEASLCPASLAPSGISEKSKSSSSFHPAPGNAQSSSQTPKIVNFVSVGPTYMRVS
The experiment in a line: cell-based or functional assay.

Assay [2] deals with T2, cynomolgus IL4Rα/Fc HIS6 (HEK expressed) (cynomolgus monkey).
T2 construct: also called Cyno IL4R; cynomolgus IL-4Rα HIS Fc (in house HEK-EBNA derived); not shown: HIS6 tag
T2 sequence (chain, as listed by the source): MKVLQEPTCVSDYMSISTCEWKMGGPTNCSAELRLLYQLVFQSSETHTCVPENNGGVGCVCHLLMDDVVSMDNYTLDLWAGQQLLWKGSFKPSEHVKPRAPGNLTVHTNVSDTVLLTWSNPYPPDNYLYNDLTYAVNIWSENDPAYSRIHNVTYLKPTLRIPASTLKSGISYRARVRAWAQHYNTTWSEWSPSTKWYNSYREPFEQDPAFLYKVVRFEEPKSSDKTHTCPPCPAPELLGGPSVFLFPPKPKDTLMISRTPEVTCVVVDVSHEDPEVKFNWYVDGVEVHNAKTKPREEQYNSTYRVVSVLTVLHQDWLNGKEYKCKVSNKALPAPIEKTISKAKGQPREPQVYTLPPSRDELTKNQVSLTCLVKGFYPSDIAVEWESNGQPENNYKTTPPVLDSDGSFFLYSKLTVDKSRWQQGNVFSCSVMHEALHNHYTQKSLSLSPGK
The assay can be described thus: HTRF receptor-ligand assay, purified scFv against biotinylated cynomolgus IL4.

For assay [3], the target named is T3, human IL4Rα/Fc (R and D Systems 604-4R) (human, UniProt P24394 26-231, limits assumed, biotin labelled in the assay of Example 5).
T3 construct: bought protein; also called IL-4Rα/Fc (R&D systems Cat. No. 604-4R-050); not shown: Fc part of the bought fusion
T3 sequence (looked up): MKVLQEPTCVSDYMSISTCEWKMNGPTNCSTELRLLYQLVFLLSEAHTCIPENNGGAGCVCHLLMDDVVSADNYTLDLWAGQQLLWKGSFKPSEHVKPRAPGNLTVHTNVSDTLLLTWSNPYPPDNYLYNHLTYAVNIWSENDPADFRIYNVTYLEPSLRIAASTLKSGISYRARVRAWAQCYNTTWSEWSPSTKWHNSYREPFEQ
The assay can be described thus: HTRF receptor-ligand assay, purified scFv against biotinylated human IL4. On the technique in general: TR-FRET usually uses a lanthanide donor and a delayed reading to cut background.

B1: Antibody 8 IgG (antibody, V domains shown)
VH: QVQLVQSGAEVKKPGASVKVSCKASGYAFTSYYMHWARQAPGQGLEWMGIINPSGGSTSYAQKFQGRVTMTRDTSTSTVYMELSSLRSEDTAVYYCARGKWWWQYWGKGTLVTVSS
VL: QSVLTQPPSVSAAPGQKVTISCSGGSSNIGNSYVSWYQQLPGTAPKLLIYDNNKRPSGIPDRFSGSKSGTSATLAITGLQTGDEADYYCGTWDTSTTYHPIFGTGTKLTVL
Consider B1, for which, in assay [1], the “IC50 (pM), IL-4 induced TF-1 cell proliferation” value was 7.9 pM and the “IC50 (pM), IL-13 induced TF-1 cell proliferation” value came to 22.4 pM.

B2: Antibody 11 IgG (antibody, V domains shown)
VH: QVQLVQSGAEVKKPGASVKVSCKASGYAFTSYYMHWARQAPGQGLEWMGIINPSGGSTSYAQKFQGRVTMTRDTSTSTVYMELSSLRSEDTAVYYCARGKWWFYDWGKGTLVTVSS
VL: QSVLTQPPSVSAAPGQKVTISCSGGSSNIGNSYVSWYQQLPGTAPKLLIYDNNKRPSGIPDRFSGSKSGTSATLAITGLQTGDEADYYCGTWDTSPSMIPLFGTGTKLTVL
On to B2, for which, in assay [1], the “IC50 (pM), IL-4 induced TF-1 cell proliferation” value was found to be 18.8 pM and the “IC50 (pM), IL-13 induced TF-1 cell proliferation” value worked out at 32.7 pM.

B3: Antibody 13 IgG (antibody, V domains shown)
VH: QVQLVQSGAEVKKPGASVKVSCKASGYAFTSYYMHWARQAPGQGLEWMGIINPSGGSTSYAQKFQGRVTMTRDTSTSTVYMELSSLRSEDTAVYYCARGKWWLYDWGKGTLVTVSS
VL: QSVLTQPPSVSAAPGQKVTISCSGGSSNIGNSYVSWYQQLPGTAPKLLIYDNNKRPSGIPDRFSGSKSGTSATLAITGLQTGDEADYYCGTWDTSTTLQPLFGTGTKLTVL
B3: in assay [1], the “IC50 (pM), IL-4 induced TF-1 cell proliferation” value worked out at 15.7 pM and the “IC50 (pM), IL-13 induced TF-1 cell proliferation” value is 24.6 pM.

B4: Antibody 19 IgG (antibody, V domains shown)
VH: QVQLVQSGAEVKKPGASVKVSCKASGYAFTSYYMHWARQAPGQGLEWMGIINPSGGSTSYAQKFQGRVTMTRDTSTSTVYMELSSLRSEDTAVYYCARGKWWWQHWGKGTLVTVSS
VL: QSVLTQPPSVSAAPGQKVTISCSGGSSNIGNSYVSWYQQLPGTAPKLLIYDNNKRPSGIPDRFSGSKSGTSATLAITGLQTGDEADYYCGTWDTSTTYHPIFGTGTKLTVL
B4: in assay [1], the “IC50 (pM), IL-4 induced TF-1 cell proliferation” value worked out at 7.6 pM and the “IC50 (pM), IL-13 induced TF-1 cell proliferation” value came out at 22.4 pM.

B5: Antibody 10 IgG (antibody, V domains shown)
VH: QVQLVQSGAEVKKPGASVKVSCKASGYAFTSYYMHWARQAPGQGLEWMGIINPSGGSTSYAQKFQGRVTMTRDTSTSTVYMELSSLRSEDTAVYYCARGKWWLYDWGKGTLVTVSS
VL: QSVLTQPPSVSAAPGQKVTISCSGGSSNIGNSYVSWYQQLPGTAPKLLIYDNNKRPSGIPDRFSGSKSGTSATLAITGLQTGDEADYYCGTWDTSTVLTPIFGTGTKLTVL
For B5, in assay [1], the “IC50 (pM), IL-4 induced TF-1 cell proliferation” value amounted to 10.1 pM and the “IC50 (pM), IL-13 induced TF-1 cell proliferation” value amounted to 25.4 pM.

B6: Antibody 14 IgG (antibody, V domains shown)
VH: QVQLVQSGAEVKKPGASVKVSCKASGYAFTSYYMHWARQAPGQGLEWMGIINPSGGSTSYAQKFQGRVTMTRDTSTSTVYMELSSLRSEDTAVYYCARGKWWLYNWGKGTLVTVSS
VL: QSVLTQPPSVSAAPGQKVTISCSGGSSNIGNSYVSWYQQLPGTAPKLLIYDNNKRPSGIPDRFSGSKSGTSATLAITGLQTGDEADYYCGTWDTSPPTKPLFGTGTKLTVL
Regarding B6, in assay [1], the “IC50 (pM), IL-4 induced TF-1 cell proliferation” value was 3.8 pM and the “IC50 (pM), IL-13 induced TF-1 cell proliferation” value was 27.2 pM.

B7: Antibody 12 IgG (antibody, V domains shown)
VH: QVQLVQSGAEVKKPGASVKVSCKASGYAFTSYYMHWARQAPGQGLEWMGIINPSGGSTSYAQKFQGRVTMTRDTSTSTVYMELSSLRSEDTAVYYCARGKWWFYDWGKGTLVTVSS
VL: QSVLTQPPSVSAAPGQKVTISCSGGSSNIGNSYVSWYQQLPGTAPKLLIYDNNKRPSGIPDRFSGSKSGTSATLAITGLQTGDEADYYCGTWDTSTTMYPLFGTGTKLTVL
B7: in assay [1], the “IC50 (pM), IL-4 induced TF-1 cell proliferation” value is 18.2 pM and the “IC50 (pM), IL-13 induced TF-1 cell proliferation” value worked out at 40.7 pM.

B8: Antibody 16 IgG (antibody, V domains shown)
VH: QVQLVQSGAEVKKPGASVKVSCKASGYAFTSYYMHWARQAPGQGLEWMGIINPSGGSTSYAQKFQGRVTMTRDTSTSTVYMELSSLRSEDTAVYYCARGKWWLYNWGKGTLVTVSS
VL: QSVLTQPPSVSAAPGQKVTISCSGGSSNIGNSYVSWYQQLPGTAPKLLIYDNNKRPSGIPDRFSGSKSGTSATLAITGLQTGDEADYYCGTWDTSTTYHPIFGTGTKLTVL
In the case of B8, in assay [1], the “IC50 (pM), IL-4 induced TF-1 cell proliferation” value was found to be 6.2 pM and the “IC50 (pM), IL-13 induced TF-1 cell proliferation” value worked out at 19.5 pM.

B9: Antibody 15 IgG (antibody, V domains shown)
VH: QVQLVQSGAEVKKPGASVKVSCKASGYAFTSYYMHWARQAPGQGLEWMGIINPSGGSTSYAQKFQGRVTMTRDTSTSTVYMELSSLRSEDTAVYYCARGKWWLYNWGKGTLVTVSS
VL: QSVLTQPPSVSAAPGQKVTISCSGGSSNIGNSYVSWYQQLPGTAPKLLIYDNNKRPSGIPDRFSGSKSGTSATLAITGLQTGDEADYYCGTWDTSTHRHPLFGTGTKLTVL
As to B9, in assay [1], the “IC50 (pM), IL-4 induced TF-1 cell proliferation” value was determined as 2.8 pM and the “IC50 (pM), IL-13 induced TF-1 cell proliferation” value amounted to 17.8 pM.

B10: Antibody 41 scFv (scFv, V domains shown)
VH: QVQLVQSGAEVRKPGASVKVSCKASGYAFTSYYMHWARQAPGQGLEWMGIINPSGGSTSYAQKFQGRVTMTRDTSTSTVYMELSSLRPEDTAVYYCARGKYWMYDWGKGTLVTVSG
VL: QSVLTQPPSVSAAPGQKVTISCSGGSTNIGNSYVSWYQRLPGTAPKLLIYDNNKRPPGIPDRFSGSKSGTSATLAITGLQTGDEADYYCGTWDTSTVWEWPFGTGTKLTVL
notes: tested as purified scFv
As for B10, the Ki in assay [2] stood at 2.7 nM; in assay [3] it was 0.053 nM.

B11: Antibody 42 scFv (scFv, V domains shown)
VH: QVQLVQSGAEVKKPGASVKVSCKASGYAFTSYYMHWARQAPGQGLEWVGIINPSGGSTSYAQKFQGRVTMTRDTSTSTVYMELSSLRSGDTAVYYCARGKYWMYDWGKGTLVTVSS
VL: QAVLTQPPSVSAAPGQKVTISCSGGSSNIGNSYVSWYQRLPGAAPKLLIYDNNKRPSGIPDRFSGSKSGTSATLAITGLQTGDEADYYCGTWDTSTGWEWPFGTGTKLTVL
notes: tested as purified scFv
Regarding B11, the Ki is 2.5 nM in assay [2] and 0.027 nM in assay [3].

B12: Antibody 38 scFv (scFv, V domains shown)
VH: QVQLVQSGAEVKKPGASVKVSCKASGYAFTSYYMHWARQAPGQGLEWMGIINPSGGSASYAQKFQGRVTMTRDTSTSTVYMELSSLRSEDTAVYYCARGKYWMYDWGKGTLVTVSS
VL: QSVLTQPPSVSAAPGQKVTISCSGGSSNIGNSYVSWYQQLPGTAPKLLIYDNNKRPSGIPDRFSGSKSGTSATLAITGLQTGDEADYFCGTWDTSTVWEWPFGTGTKLTVL
notes: tested as purified scFv
Regarding B12, the figures for the Ki in assay [2] and in assay [3] were 2.7 nM and 0.066 nM, respectively.

B13: Antibody 37GL scFv (scFv, V domains shown)
VH: QVQLVQSGAEVKKPGASVKVSCKASGYAFTSYYMHWVRQAPGQGLEWMGIINPRGGSTSYAQKFQGRVTMTRDTSTSTVYMELSSLRSEDTAVYYCARGKYWMYDWGKGTLVTVSS
VL: QSVLTQPPSVSAAPGQKVTISCSGGGSSIGNSYVSWYQQLPGTAPKLLIYDNNKRPSGIPDRFSGSKSGTSATLGITGLQTGDEADYYCGTWDTSPVWEWPFGTGTKLTVL
notes: tested as purified scFv; also called NCIMB 41600
B13: the inhibition constant Ki in assay [2] was 0.7 nM; in assay [3], 0.061 nM.

B14: Antibody 40 scFv (scFv, V domains shown)
VH: QVQLVQSGAEVKKPGASVKVSCKASGYAFTSYYMHWARQAPGQGLEWMGIINPSGGSTSYAQKFQGRVTMTRDTSTSTVYMELSSLRSEDTAVYYCARGKYWMYDWGKGTLVTVSS
VL: QSVLTQPPSVSAAPGQKVTISCSGGSSNIGNSYVSWYQQLPGTAPKLLIYDNNKRPSGIPDRFSGSKSGTSATLAITGLQTGDEADYYCGTWDSSTVWEWPFGTGTKLTVL
notes: tested as purified scFv
For the molecule B14, the inhibition constant (Ki) in assay [2] was 6.5 nM; in assay [3], 0.031 nM.

Broadly, the Ki is the dissociation constant of the complex between target and ligand, obtained from inhibition or displacement. Higher therefore signals weaker binding.

These data come from US20180057596A1 (AstraZeneca / MedImmune, published 2018).
